The target of assay [1] is human glucagon-like peptide 1 receptor (GLP-1 R) (human, UniProt P43220 24-463). Description: cell-based or functional assay.
Assay [2] addresses T1, human GLP-2 receptor (hGLP2-R) (human, UniProt O95838 1-553).
T1 sequence (looked up): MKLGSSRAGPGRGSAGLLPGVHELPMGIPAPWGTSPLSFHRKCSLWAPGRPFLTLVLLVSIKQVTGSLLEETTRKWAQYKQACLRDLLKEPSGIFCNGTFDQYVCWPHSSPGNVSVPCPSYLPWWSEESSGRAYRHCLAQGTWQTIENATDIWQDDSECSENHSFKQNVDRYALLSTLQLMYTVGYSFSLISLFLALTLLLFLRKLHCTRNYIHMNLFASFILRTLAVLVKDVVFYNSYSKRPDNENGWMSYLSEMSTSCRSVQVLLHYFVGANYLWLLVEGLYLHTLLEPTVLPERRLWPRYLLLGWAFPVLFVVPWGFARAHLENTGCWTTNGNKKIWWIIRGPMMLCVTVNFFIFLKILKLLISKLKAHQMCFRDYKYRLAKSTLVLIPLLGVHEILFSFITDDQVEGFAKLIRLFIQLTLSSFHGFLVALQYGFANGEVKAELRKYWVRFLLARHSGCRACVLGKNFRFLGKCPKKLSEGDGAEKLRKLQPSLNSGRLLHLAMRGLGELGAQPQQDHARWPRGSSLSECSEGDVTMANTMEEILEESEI
Description: cell-based or functional assay.

*1 amine or outer side, *2 acyl side, *3 side chain or, on linkers, in order; H or OH if unused. Side-chain parts run from the residue outwards. [ ]: non-standard residue; d: D form. The star is where a group is joined. C20 diacid = O=C(O)CCCCCCCCCCCCCCCCCCC(=O)*; γGlu = O=C(O)[C@H](CCC(=O)[*:2])N[*:1]; AEEA = NCCOCCOCC(=O)O; Aib = CC(C)(N)C(=O)O

B1: Compound 30 (peptide)
peptide: HXEGSFTSELATILDXQAARDFIAWLIRHKITD
HELM: PEPTIDE1{H.[Aib].E.G.S.F.T.S.E.L.A.T.I.L.D.K.Q.A.A.R.D.F.I.A.W.L.I.R.H.K.I.T.D}|PEPTIDE2{[O=C(O)CCCCCCCCCCCCCCCCC(=O)[*:2]].[gGlu]}$PEPTIDE1,PEPTIDE2,16:R3-2:R2$$$V2.0
SMILES: CC[C@H](C)[C@H](NC(=O)[C@H](Cc1ccccc1)NC(=O)[C@H](CC(=O)O)NC(=O)[C@H](CCCNC(=N)N)NC(=O)[C@H](C)NC(=O)[C@H](C)NC(=O)[C@H](CCC(N)=O)NC(=O)[C@H](CCCCNC(=O)CC[C@H](NC(=O)CCCCCCCCCCCCCCCCC(=O)O)C(=O)O)NC(=O)[C@H](CC(=O)O)NC(=O)[C@H](CC(C)C)NC(=O)[C@@H](NC(=O)[C@@H](NC(=O)[C@H](C)NC(=O)[C@H](CC(C)C)NC(=O)[C@H](CCC(=O)O)NC(=O)[C@H](CO)NC(=O)[C@@H](NC(=O)[C@H](Cc1ccccc1)NC(=O)[C@H](CO)NC(=O)CNC(=O)[C@H](CCC(=O)O)NC(=O)C(C)(C)NC(=O)[C@@H](N)Cc1c[nH]cn1)[C@@H](C)O)[C@@H](C)O)[C@@H](C)CC)C(=O)N[C@@H](C)C(=O)N[C@@H](Cc1c[nH]c2ccccc12)C(=O)N[C@@H](CC(C)C)C(=O)N[C@H](C(=O)N[C@@H](CCCNC(=N)N)C(=O)N[C@@H](Cc1c[nH]cn1)C(=O)N[C@@H](CCCCN)C(=O)N[C@H](C(=O)N[C@H](C(=O)N[C@@H](CC(=O)O)C(=O)O)[C@@H](C)O)[C@@H](C)CC)[C@@H](C)CC
With B1, the “EC50 GLP-1 (nM); cAMP response” value in assay [1] came out at 0.31 nM. Besides, the “EC50 GLP-2 (nM); cAMP response” value in assay [2] amounted to 0.38 nM.

B2: Compound 32 (peptide)
peptide: HXEGSFTSELATILDXQAARDFIAWLQQHKITD
HELM: PEPTIDE1{H.[Aib].E.G.S.F.T.S.E.L.A.T.I.L.D.K.Q.A.A.R.D.F.I.A.W.L.Q.Q.H.K.I.T.D}|PEPTIDE2{[CCCCCCCCCCCCCCCC(=O)[*:2]].[bAla]}$PEPTIDE1,PEPTIDE2,16:R3-2:R2$$$V2.0
SMILES: CCCCCCCCCCCCCCCC(=O)NCCC(=O)NCCCC[C@H](NC(=O)[C@H](CC(=O)O)NC(=O)[C@H](CC(C)C)NC(=O)[C@@H](NC(=O)[C@@H](NC(=O)[C@H](C)NC(=O)[C@H](CC(C)C)NC(=O)[C@H](CCC(=O)O)NC(=O)[C@H](CO)NC(=O)[C@@H](NC(=O)[C@H](Cc1ccccc1)NC(=O)[C@H](CO)NC(=O)CNC(=O)[C@H](CCC(=O)O)NC(=O)C(C)(C)NC(=O)[C@@H](N)Cc1c[nH]cn1)[C@@H](C)O)[C@@H](C)O)[C@@H](C)CC)C(=O)N[C@@H](CCC(N)=O)C(=O)N[C@@H](C)C(=O)N[C@@H](C)C(=O)N[C@@H](CCCNC(=N)N)C(=O)N[C@@H](CC(=O)O)C(=O)N[C@@H](Cc1ccccc1)C(=O)N[C@H](C(=O)N[C@@H](C)C(=O)N[C@@H](Cc1c[nH]c2ccccc12)C(=O)N[C@@H](CC(C)C)C(=O)N[C@@H](CCC(N)=O)C(=O)N[C@@H](CCC(N)=O)C(=O)N[C@@H](Cc1c[nH]cn1)C(=O)N[C@@H](CCCCN)C(=O)N[C@H](C(=O)N[C@H](C(=O)N[C@@H](CC(=O)O)C(=O)O)[C@@H](C)O)[C@@H](C)CC)[C@@H](C)CC
On to B2, for which, in assay [1], the “EC50 GLP-1 (nM); cAMP response” value amounted to 0.38 nM. Besides, in assay [2], the “EC50 GLP-2 (nM); cAMP response” value came out at 0.46 nM.

B3: Compound 31 (peptide)
peptide: HXEGSFTSELATILDXQAARDFIAWLISHKITD
HELM: PEPTIDE1{H.[Aib].E.G.S.F.T.S.E.L.A.T.I.L.D.K.Q.A.A.R.D.F.I.A.W.L.I.S.H.K.I.T.D}|PEPTIDE2{[O=C(O)CCCCCCCCCCCCCCCCC(=O)[*:2]].[gGlu]}$PEPTIDE1,PEPTIDE2,16:R3-2:R2$$$V2.0
SMILES: CC[C@H](C)[C@H](NC(=O)[C@H](Cc1ccccc1)NC(=O)[C@H](CC(=O)O)NC(=O)[C@H](CCCNC(=N)N)NC(=O)[C@H](C)NC(=O)[C@H](C)NC(=O)[C@H](CCC(N)=O)NC(=O)[C@H](CCCCNC(=O)CC[C@H](NC(=O)CCCCCCCCCCCCCCCCC(=O)O)C(=O)O)NC(=O)[C@H](CC(=O)O)NC(=O)[C@H](CC(C)C)NC(=O)[C@@H](NC(=O)[C@@H](NC(=O)[C@H](C)NC(=O)[C@H](CC(C)C)NC(=O)[C@H](CCC(=O)O)NC(=O)[C@H](CO)NC(=O)[C@@H](NC(=O)[C@H](Cc1ccccc1)NC(=O)[C@H](CO)NC(=O)CNC(=O)[C@H](CCC(=O)O)NC(=O)C(C)(C)NC(=O)[C@@H](N)Cc1c[nH]cn1)[C@@H](C)O)[C@@H](C)O)[C@@H](C)CC)C(=O)N[C@@H](C)C(=O)N[C@@H](Cc1c[nH]c2ccccc12)C(=O)N[C@@H](CC(C)C)C(=O)N[C@H](C(=O)N[C@@H](CO)C(=O)N[C@@H](Cc1c[nH]cn1)C(=O)N[C@@H](CCCCN)C(=O)N[C@H](C(=O)N[C@H](C(=O)N[C@@H](CC(=O)O)C(=O)O)[C@@H](C)O)[C@@H](C)CC)[C@@H](C)CC
On to B3, for which the “EC50 GLP-1 (nM); cAMP response” value in assay [1] is 0.27 nM. Also, the “EC50 GLP-2 (nM); cAMP response” value in assay [2] stood at 0.24 nM.

B4: Compound 33 (peptide)
peptide: HXEGSFTSELATILDXQAARDFIAWLYQHKITD
HELM: PEPTIDE1{H.[Aib].E.G.S.F.T.S.E.L.A.T.I.L.D.K.Q.A.A.R.D.F.I.A.W.L.Y.Q.H.K.I.T.D}|PEPTIDE2{[O=C(O)CCCCCCCCCCCCCCCCC(=O)[*:2]].[gGlu].[O=C(COCCOCCN[*:1])[*:2]]}$PEPTIDE1,PEPTIDE2,16:R3-3:R2$$$V2.0
SMILES: CC[C@H](C)[C@H](NC(=O)[C@H](Cc1ccccc1)NC(=O)[C@H](CC(=O)O)NC(=O)[C@H](CCCNC(=N)N)NC(=O)[C@H](C)NC(=O)[C@H](C)NC(=O)[C@H](CCC(N)=O)NC(=O)[C@H](CCCCNC(=O)COCCOCCNC(=O)CC[C@H](NC(=O)CCCCCCCCCCCCCCCCC(=O)O)C(=O)O)NC(=O)[C@H](CC(=O)O)NC(=O)[C@H](CC(C)C)NC(=O)[C@@H](NC(=O)[C@@H](NC(=O)[C@H](C)NC(=O)[C@H](CC(C)C)NC(=O)[C@H](CCC(=O)O)NC(=O)[C@H](CO)NC(=O)[C@@H](NC(=O)[C@H](Cc1ccccc1)NC(=O)[C@H](CO)NC(=O)CNC(=O)[C@H](CCC(=O)O)NC(=O)C(C)(C)NC(=O)[C@@H](N)Cc1c[nH]cn1)[C@@H](C)O)[C@@H](C)O)[C@@H](C)CC)C(=O)N[C@@H](C)C(=O)N[C@@H](Cc1c[nH]c2ccccc12)C(=O)N[C@@H](CC(C)C)C(=O)N[C@@H](Cc1ccc(O)cc1)C(=O)N[C@@H](CCC(N)=O)C(=O)N[C@@H](Cc1c[nH]cn1)C(=O)N[C@@H](CCCCN)C(=O)N[C@H](C(=O)N[C@H](C(=O)N[C@@H](CC(=O)O)C(=O)O)[C@@H](C)O)[C@@H](C)CC
For B4, the “EC50 GLP-1 (nM); cAMP response” value in assay [1] turned out to be 0.85 nM. In addition, the “EC50 GLP-2 (nM); cAMP response” value in assay [2] is 0.072 nM.

B5: reference compound B (peptide)
peptide: HXEGSFSSELATILDXQAARDFIAWLIQHKITD
HELM: PEPTIDE1{H.[Aib].E.G.S.F.S.S.E.L.A.T.I.L.D.K.Q.A.A.R.D.F.I.A.W.L.I.Q.H.K.I.T.D}|PEPTIDE2{[O=C(O)CCCCCCCCCCCCCCCCC(=O)[*:2]].[gGlu]}$PEPTIDE1,PEPTIDE2,16:R3-2:R2$$$V2.0
SMILES: CC[C@H](C)[C@H](NC(=O)[C@H](Cc1ccccc1)NC(=O)[C@H](CC(=O)O)NC(=O)[C@H](CCCNC(=N)N)NC(=O)[C@H](C)NC(=O)[C@H](C)NC(=O)[C@H](CCC(N)=O)NC(=O)[C@H](CCCCNC(=O)CC[C@H](NC(=O)CCCCCCCCCCCCCCCCC(=O)O)C(=O)O)NC(=O)[C@H](CC(=O)O)NC(=O)[C@H](CC(C)C)NC(=O)[C@@H](NC(=O)[C@@H](NC(=O)[C@H](C)NC(=O)[C@H](CC(C)C)NC(=O)[C@H](CCC(=O)O)NC(=O)[C@H](CO)NC(=O)[C@H](CO)NC(=O)[C@H](Cc1ccccc1)NC(=O)[C@H](CO)NC(=O)CNC(=O)[C@H](CCC(=O)O)NC(=O)C(C)(C)NC(=O)[C@@H](N)Cc1c[nH]cn1)[C@@H](C)O)[C@@H](C)CC)C(=O)N[C@@H](C)C(=O)N[C@@H](Cc1c[nH]c2ccccc12)C(=O)N[C@@H](CC(C)C)C(=O)N[C@H](C(=O)N[C@@H](CCC(N)=O)C(=O)N[C@@H](Cc1c[nH]cn1)C(=O)N[C@@H](CCCCN)C(=O)N[C@H](C(=O)N[C@H](C(=O)N[C@@H](CC(=O)O)C(=O)O)[C@@H](C)O)[C@@H](C)CC)[C@@H](C)CC
For the molecule B5, in assay [1], the “EC50 GLP-1 (nM); cAMP response” value turned out to be 3.9 nM. Moreover, the “EC50 GLP-2 (nM); cAMP response” value in assay [2] was determined as 0.28 nM.

B6: Compound 34 (peptide)
peptide: H-H[Aib]EGSFTSELATILDK([AEEA-AEEA-γGlu-C20 diacid])QAARDFIAWLKQHKITD-OH
SMILES: CC[C@H](C)[C@H](NC(=O)[C@H](Cc1ccccc1)NC(=O)[C@H](CC(=O)O)NC(=O)[C@H](CCCNC(=N)N)NC(=O)[C@H](C)NC(=O)[C@H](C)NC(=O)[C@H](CCC(N)=O)NC(=O)[C@H](CCCCNC(=O)COCCOCCNC(=O)COCCOCCNC(=O)CC[C@H](NC(=O)CCCCCCCCCCCCCCCCCCC(=O)O)C(=O)O)NC(=O)[C@H](CC(=O)O)NC(=O)[C@H](CC(C)C)NC(=O)[C@@H](NC(=O)[C@@H](NC(=O)[C@H](C)NC(=O)[C@H](CC(C)C)NC(=O)[C@H](CCC(=O)O)NC(=O)[C@H](CO)NC(=O)[C@@H](NC(=O)[C@H](Cc1ccccc1)NC(=O)[C@H](CO)NC(=O)CNC(=O)[C@H](CCC(=O)O)NC(=O)C(C)(C)NC(=O)[C@@H](N)Cc1c[nH]cn1)[C@@H](C)O)[C@@H](C)O)[C@@H](C)CC)C(=O)N[C@@H](C)C(=O)N[C@@H](Cc1c[nH]c2ccccc12)C(=O)N[C@@H](CC(C)C)C(=O)N[C@@H](CCCCN)C(=O)N[C@@H](CCC(N)=O)C(=O)N[C@@H](Cc1c[nH]cn1)C(=O)N[C@@H](CCCCN)C(=O)N[C@H](C(=O)N[C@H](C(=O)N[C@@H](CC(=O)O)C(=O)O)[C@@H](C)O)[C@@H](C)CC
Regarding B6, the “EC50 GLP-1 (nM); cAMP response” value in assay [1] was 0.28 nM. In assay [2], the “EC50 GLP-2 (nM); cAMP response” value came out at 0.13 nM.

Values taken from patent US20200297818A1 (ZEALAND PHARMA A S, published 2020).
